These results are taken from CN112125974A (BIORAY LABORATORIES INC, dated 2020).

One assay addresses 人BCMA(hBCMA)蛋白 (human) (UniProt Q02223). Description: phage ELISA, 0.5 μg/ml hBCMA coated, phage supernatant, anti-M13-HRP.
The target in assay [1] is T1, BCMA on BCMA+ target cells (NCI-H929; K562-BCMA) (human, UniProt Q02223 1-184).
T1 sequence (looked up): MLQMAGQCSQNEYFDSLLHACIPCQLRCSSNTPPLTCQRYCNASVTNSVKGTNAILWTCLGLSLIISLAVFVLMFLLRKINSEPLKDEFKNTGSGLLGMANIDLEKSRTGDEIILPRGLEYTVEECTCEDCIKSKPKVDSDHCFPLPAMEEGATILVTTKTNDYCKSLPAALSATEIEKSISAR
Briefly: cell-based or functional assay.

The next assay deals with biotin-BCMA抗原 (human) (UniProt Q02223). Description: flow cytometry, T cells 72 h after infection, 0.2 μg/ml biotin-BCMA, APC-Streptavidin.

B1: 抗BCMA单链抗体3(命名为抗体2079) (scFv, V domains shown)
VH: QVQLQQSGPGLVKPSQTLSLTCAISGDSVSSNSAAWNWIRQSPSRGLEWLGRTYYRSTWYNDYAVSVKSRITINPDTSKNQFSLQLNSVTPEDTAVYYCARGTGTLDYWGQGTLVTVSS
VL: QSALTQPASVSGSPGQSITMSCTGTSSDVGGYKYVSWYQQHPGKAPQLMIHDVRERPSGVSNRFSGSKSGNTASLTISGLQAEDEADYYCSSFTNNSTFVFGTGTKVTVL
For the molecule B1, the OD450 with 人BCMA(hBCMA)蛋白 (human) was greater than 1.5 OD450.

B2: 2079嵌合抗原受体 (CAR-BCMA-2079, on T cells CAR-BCMA-2079-T) (other)
chain: QSALTQPASVSGSPGQSITMSCTGTSSDVGGYKYVSWYQQHPGKAPQLMIHDVRERPSGVSNRFSGSKSGNTASLTISGLQAEDEADYYCSSFTNNSTFVFGTGTKVTVLGSTSGSGKPGSGEGSTKGQVQLQQSGPGLVKPSQTLSLTCAISGDSVSSNSAAWNWIRQSPSRGLEWLGRTYYRSTWYNDYAVSVKSRITINPDTSKNQFSLQLNSVTPEDTAVYYCARGTGTLDYWGQGTLVTVSSTTTPAPRPPTPAPTIASQPLSLRPEACRPAAGGAVHTRGLDFACDIYIWAPLAGTCGVLLLSLVITLYCKRGRKKLLYIFKQPFMRPVQTTQEEDGCSCRFPEEEEGGCELRVKFSRSADAPAYKQGQNQLYNELNLGRREEYDVLDKRRGRDPEMGGKPRRKNPQEGLYNELQKDKMAEAYSEIGMKGERRRGKGHDGLYQGLSTATKDTYDALHMQALPPR
Take B2: in assay [1], the “proportion of target cells K562-BCMA in total cells, co-culture E:T 7:1, 0 h” value turned out to be 9.28%; the “proportion of target cells K562-BCMA in total cells, co-culture E:T 7:1, 48 h” value worked out at 8.69%; the “proportion of target cells NCI-H929 in total cells, co-culture E:T 5:1, end” value was 6.63%; the “proportion of target cells NCI-H929 in total cells, co-culture E:T 5:1, start” value came out at 11.3%. For the same molecule, the CAR-BCMA阳性率 (percent of T cells stained by biotin-BCMA) in the assay with biotin-BCMA抗原 (human) was found to be 22.3%.

B3: 抗BCMA单链抗体2(命名为抗体2077) (scFv, V domains shown)
VH: QVQLQQSGPGLVKPSQTLSLTCAISGDSVSSNSAAWNWIRQSPSRGLEWLGRTYYRSKWYNDYAVSVKSRITINPDTSKNQFSLQLNSVTPEDTAVYYCARLAYEVRSTDWYFDLWGRGTLVTVSS
VL: QPVLTQPPSVSEAPRQRVTISCSGSSSNIGNNAVNWYQQLPGKAPKLLIYYDDLLPSGVSDRFSGSKSGTSASLAISGLQSEDEADYYCAAWDDSLNGWVFGGGTKLTVL
For B3, the OD450 with 人BCMA(hBCMA)蛋白 (human) is greater than 1.5 OD450.

B4: 2073嵌合抗原受体 (CAR-BCMA-2073, on T cells CAR-BCMA-2073-T) (other)
chain: DIVMTQSPDSLAVSLGERATINCKSSQNVLYSSNNRNYLAWYQQKPGQPPKLLIYWASTRESGVPDRFSGSGSGTDFTLTISSLQAEDVAVYYCQQYYGSVVTFGGGTKVEIKGSTSGSGKPGSGEGSTKGQVQLQQSGPGLVKPSQTLSLTCAISGDSVSSNSAAWNWIRQSPSRGLEWLGRTYYRSKWYNDYALSVKSRITINPDTSKNQFSLQLNSVTPEDTAVYYCARGASSFDYWGQGTLVTVSSTTTPAPRPPTPAPTIASQPLSLRPEACRPAAGGAVHTRGLDFACDIYIWAPLAGTCGVLLLSLVITLYCKRGRKKLLYIFKQPFMRPVQTTQEEDGCSCRFPEEEEGGCELRVKFSRSADAPAYKQGQNQLYNELNLGRREEYDVLDKRRGRDPEMGGKPRRKNPQEGLYNELQKDKMAEAYSEIGMKGERRRGKGHDGLYQGLSTATKDTYDALHMQALPPR
On to B4, for which, in assay [1], the “proportion of target cells K562-BCMA in total cells, co-culture E:T 7:1, 0 h” value is 8.69%; the “proportion of target cells K562-BCMA in total cells, co-culture E:T 7:1, 48 h” value stood at 6.1%; the “proportion of target cells NCI-H929 in total cells, co-culture E:T 5:1, end” value is 0.435%; the “proportion of target cells NCI-H929 in total cells, co-culture E:T 5:1, start” value came out at 15.4%. The CAR-BCMA阳性率 (percent of T cells stained by biotin-BCMA) with biotin-BCMA抗原 (human) turned out to be 45.1%.

B5: 抗BCMA单链抗体4(命名为抗体2082) (scFv, V domains shown)
VH: QVQLQQSGPALVKPSQTLSLTCVISGDSVSSNSASWTWIRQSPSRGLEWLGRTYRRADRWYYDYALSLNSRLTINPDTSKNHFALHLTSVTPEDTAVYYCSREYWGGSFDVWGQGTTVTVSS
VL: QPVLTQPASVSGSPGQSITISCTGTSSDVGGYDYVSWYQQHPGKAPKLMLYEVNNRPSGVSNRFSGSKSGNTASLTISGLQAEDEGAYYCSSYTSSNTHVVFGGGTQLTVL
In the assay with 人BCMA(hBCMA)蛋白 (human), B5 came in with an OD450 greater than 1.5 OD450.
